# In the nanobody polyreactivity screen of Harvey et al. (2022):
# Assay: yeast display, Sf9 membrane polyspecificity reagent, FACS + sequencing; frameworks hold sequencing errors
# Summary of the method: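 Galactose-induced (36–48 hours) yeast carrying a synthetic nanobody display library were exposed to 10% biotinylated, detergent-solubilized Sf9 membrane reagent at 4 °C for 1 hour. FACS followed streptavidin microbead enrichment, using low and high (top ~1%) gates for expression (anti-HA) and reagent binding (streptavidin). Colony PCR, MiSeq 2 × 250 sequencing and CDR-length filtering followed. Labels for polyreactivity reflect the gate of origin.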
row,Sequence,polyreactivity (PSR sort gate)
1,QVQLVESGGGLVQAGVSLRLSCAASGSIFQTYDMGWYRQAPGKERELVAAITGSGDSTYYADSVKGRFTISRDNAKNTVYLQMNSLKPEDTAVYYCNADGPSTPWVEYGYWGQGTQVTVSS,low polyreactivity
2,QVQLVESGGGLVQAGGSLRLSCAASGSTLRPYGMGWYRQAPGKERELVATIRSSSGRTYYADSVKGRFTISRDNAKTTVYLQMTSLKPEDTAVYYCARRYITNIKYDYWGQGTQVTVSS,high polyreactivity
3,QVQLVESGGGLVQAGGSLRLSCCASGFTFIVYSMGWYRQSPGKERELVAAITQSGGSTFYADSVKGRFTISRDNAKNTVYLQMNSLKPEDTAVYYCNAYRKFRYWGQGTQVTVSS,low polyreactivity
4,QVQHVESVVGLVQAGVSLPLSGASSGYIFLENAMGWYRQATGKERELDAAITVSGGGTYYADSVKGRFTISRDNAKITVYLQMNSLKPEDTAVYYCAADEDNPWLWFYYWGLGTQVTVSS,low polyreactivity
5,QVQLVESVGGLVQAGGSLRLSCAASGGIFQPNAMGWYRQAPGKERELVATISQRGGSPYYSDSVKGRFTISRDNAKNTVYLQMNSVKPEDTAVYYCAAEVYYYYDAIYIARYEYWGQGTQVTVSS,low polyreactivity
6,QVQLVESGGGFVQAGGSLRLSCASSGRIFYRNAMVWYRQAPGKESELVAAILGSGGRTYYADSVKGSFTISRDTAKNNVYLQMNSMKPEVTAVYYCAAYGYYVEHPRGLSGPYDDDYWGQGTQVTVSS,low polyreactivity
7,KVQLVESGGGLVQAGGSLRFSCAPSGSIFSGNTMGWYRQAPGKEREMVAAITRSGDTTYYADSVKGRFTISRDYAKNTVYLQMNSLKPEDTAFYYCAAALPRYRSRAIRVEFWGQGSQVTVSS,high polyreactivity
8,QVQLVESGGGLVQAGGSLRLSCAASGSTFKRYAMGWYRQAPGKERELVASISSGGSTNYADSVKGRFTISRDNAKNTVYLQMNSLKPEDTAVYYCAVSYRSFRYYWERYYSWGQGTQVTVSS,high polyreactivity
9,QVQLVESGGGLVQAGGSLRLSCAASGSTFYWYTMGWYRQAPGKEREMVATITSVGRTNYADSVKGRFTISRDNAKNTVYLQMNSLKPEDTAVYYCAASKARWPRGGSKYYYWGQGTQVSVSS,high polyreactivity
10,QVQLVESGGGLVQAGGSLRLSCAASGRTFDGNTMGWYRQAPGKERELVAAITKRGGSTYYADSVKGRFTFSRDNAKNTVYLQMNSLKPEDTAVYYCAKGQSYSTRLSPYYYWGQGTQVTVSS,high polyreactivity
11,QVQLVESGGGLVQAGGSLRLSCAASGSIFVIYAMGWYRQAPGKERELVAAITWNGGSTVYADSVKGRFTISRDNAKNTVYLQMNSLKPEDTAVYSCNAVAVSNSGWEYDYWGQGTQVTVSS,low polyreactivity
12,QVQLEESGGGLVQAGGSLRLICAAYGSIIPYNAMGWYRQQPGEFVDAISYSSGSTYYADSVKGRFTISRDNAKNTVYLQMNSLKPEDTAVYYCAAGSWYPPSYVWLRRYDYWGQGTQVTVSS,low polyreactivity
13,QVQLVESGGGLVQAGGSLRLSCAATGFTFHHYVMGWYRHAHGKEREFVASIRWRGGSTYYADSVKGRFTISRDNAKNTVYLQMNSLKPEDTAVYYCAADSFTYWSWLHGYWGQGTQVTVSS,high polyreactivity
14,QVQLVESGGGLVQAGGSLRLSCAASGSIFGRNAMGWYRQAPGKERELVAAINYSGTSTYYADSVKGRFTISRDNAKNTVYLQMNSLKPEDTAVYYCAKARHKSPTYTHDSWGQGTQVTVSS,high polyreactivity
15,QVQLVESGGGLVQAGGSLRLSCAASGSTFKYYAMGWYRQAPGKERELVARISIRGGSTYYADSVKGRFTISRDNAKNTVYLQMNSLKPEDTAVYYCAAVGYFGGYRYYYWGQGTQVTVSS,high polyreactivity
16,QVQLVESGGGLVQAGGSLRLSCAASGSIFWYAMGWYRQAPGKERELVATITSGASTTYADSVKGRFTISRDNPKNTVYLQMNSLKPEDTAVYYCAKGFTYPQTRFGYWGQGTQVTVSS,low polyreactivity
17,QVQLVESGGGLVQAGGSLRLSCAASGSTFFGYVMGWDRQAPGKERELVAAIRSSGGSTYYADSVKGRFTISRDNAKNTVYLQINSLKPEDTAVYYCAASYRYDAYSHYDYWGQGTQVTVSS,low polyreactivity
18,QVQIVESGGGLVQAGGSLRVSCAASGSTFAVYAMGWYRQAPGKEREMVAAISQSGGSTNYADSVKGRFTISRDNAKNTVYLQMNSLKPEDTAVYYCNVDVSRSWAQPYTYDYWGHGTQVTVSS,low polyreactivity
19,QVLLVESGGGLVQAGGSLRLSCAASGLTFERYAMGWYRQAPGKERELVAAISIRGGSTYYADSVKGRFTISRDKAMNTVYFQMKSLKPEDTAVDYCSADGSGREYDYWGQGTQVTVSS,low polyreactivity
20,QVLLQESGGGLVQAGGSLRLSCAASGNIFSAGGMGWSRQAPVNERELVAGIGTGTSTNYADSVKGRFTISRDNSKNTVYLQMNSLTPEDTAVYYCAAAYYSGLSHWYWGQGTQVTVSS,low polyreactivity
21,QVQLVESGGGLVQAGGSLRLSCAASGFTLADNPMGWYRQAPGKERELVAAITSGASTYYADSVKGRFTISRDNAKNTVYLQMNTLKPEDTAVYYCAALYYWRSGYDAWGQGTQVTVSS,low polyreactivity
22,QVQLVESGGGLVQAGGSLRLSCAASGRTFRWYPMGWYRQAPGKERELVAAINPGGSTNYADSVKGRFTISRDNANNTVDLQMNSLKPEDSAVYYCNAAGYDALTQNYYWGQGTQVTVSS,low polyreactivity

row,Sequence,polyreactivity (PSR sort gate)
1,QVQLVESGGGLGQAGGSLRLSCAASGRIFRDYAMGWYRQAPGKERQLVAAISWSGGSSYYADSVKGRFTISRDNAKNTVDLQMNSLKQEDTAVYYCAVEYYGGDSYRYDYWGQGTQVTVSS,low polyreactivity
2,QVQLVESGGGLVQAGGSHRLSCAASGSTFVRNAMGWYRPAPAKERGLVAGISTSGGRTYYADSVKGRFTISRDNAKNTVYLQMNSLKPEDTAVYDCAVLAWRSIAYDKYDYWGQGTQVTVSS,high polyreactivity
3,QVQLVESGGGLVQAGGSLRLCCAASGITFNYYTMGWYRQAAGNERELVAAIRSGGRTYYADSVKGRFTISRDNAKNTVYLQMNSLKPEDTAVYYGAALAVTYPYDYWGQGTQVTVSS,high polyreactivity
4,QVQLVESGGGLVQAGGSLRLSCAASGRTFYRNAMGWYRQATGKEREFVAVISVSGGSTYYADSVKGRFTISRDYAKNTVYLQMNSLKPEDTAVYYCGKRGPVRKTAYEYWGQGTQVTVSS,low polyreactivity
5,QVQLVESGGGLVQAGGSLRLSCAASGRIFYGNAMGWYRQAPGKERELVAAITRGVSTYYADSVKGRFTISRDNAKNTVYLQMNSLKPEDTAVYYCAKDRRVRMDSWGQGTQVTVSS,low polyreactivity
6,QVQLVESGGGLVQAGGSLRLSCAASGLTFEYYTMGWYIQAPGKERELVAAITSSGGSTYYADSVKGRFTISRDNAKNTVYLQMNSLKPVDTAVYYCAAYQIYQYDGTYDYWGQGTQVTVSS,low polyreactivity
7,QDQLVESGGGLVQAGGSLRLICAASGFTFRWYSMGWYRQAPGKERELVADISRGGSTNYADSVKGRFTISRDHAKNSVYLQMNSLTPEDTAVFYCAATQRKYGYKSYYYWGQGTQVTVSS,high polyreactivity
8,QVQLVESGGGLVQAGGSLRLSCAASGRIFQGYAMGWYRQAPGKERELVARITFRGARTYYADSVKGRFTISRDNAKITVYLHMNCLKPEDTAVYYFAKDAETYYWGSYKSLYDYWGQGTQVTVSS,low polyreactivity
9,QVQLVESGGGLVQAGGSLRLSCAASGSTFDYYAMGWYRQAPGKERELVAAISSGGSTNYADSVKGRFTISRDNAKNTVYLQMNSLKPEDTAVYYCAKDHAYTSAPHQYASEYYYWGQGTQVTVSS,low polyreactivity
10,QVQLVESGGGLFQAGGSLSLRCAASGSIFEVNALGWDRQGPGKERELVAAISQRGTRTYYADSVKGRFTMSRDYAKNTVYLQMNILKPEDTAVYYCNRGGWRQYDSWGQGTQVTVST,high polyreactivity
11,QVQLVESRGGLLQAGGSLRLSCAASGIIFGHYDMGWYRQAPGKEWELVAAITFTGDSTYYADSVKGRFTISRDNAKHTVYLQMNSLKPEDTAVYYCAAETPVPWGSWGYDYWGQGTQVTVSS,low polyreactivity
12,QVQLVESGGGLVQAGGSLRLSCAASGSTSDINAMGWYRQAPGKERELVAVITFSGGSTNYADSVKGRFTISRDNAKNTVYLQMHSLKPEDTAVYYCNADTLTTTRRFNPYDYWGQGTQVTVSS,low polyreactivity
13,QVQLVESGGGLVQAGGSLRLSCAASGSTFVDYDMGWYRQAPGKERELVAAITYSGARTYYADSVKGRFTISRDNAKNTVYLKMNSLKPEDTAVYYCNADQRSASDQLEFDYWGQGTQVTVSS,low polyreactivity
14,QVQLVESGGGLVQAGGSLRLSCAASGGIFAYYGMGWYRQAPGKERELVAAIWIGGNTYYADSVKGRFTISRDNAKNTVYLQMNSLKPVDTAVYYCATEGFVYSWLWEFEYWGQGTQVTVSS,low polyreactivity
15,QVQLVESGGGLVQAGGSLRLSCAASGRIFKNNAMGWYRQAPGKERELVAGISRSGGRTYYADSVKGRFTISRDNAKNTVYLQMNSLKPEDTAVYYCNAYAYYSHGVTTTYDYWGQGTQVTVSS,high polyreactivity
16,QVQLVESGGGLVQAGGSLRLSCAASGSTFDVNAMGWYRQAPGKERELVAAISFSGGSTYYADSVKGRFTISRDNAKNTVYLQMNSLKPEDTAVYYCADYDYWGQGTQVTVSS,low polyreactivity
17,QVQLVESGGGLVQAGGSLRLSCAASGRTFRSNAMGWYRQAPGKERELVATISRRGVSTYYADSVKGRFTISRDNAKNTVYLQMNSLKPEDTAVYYCTLNVGTTSRWSYDYWGQGTQVTVSS,high polyreactivity
18,QVQLVESGGGLVQAGGSLRLSCAASGSTFPQNVMGWYRQAPGKVRELVAAITRSAGSTYYADSVKGRFTISRDNPKNTVYLQMNSLKPEDTAVYNCNTGRQRGSYYYDYWGQGTQVTVSS,high polyreactivity
19,QVHLVQSGGGLVQAGGSLRLSCAASGSILYFYAKGWYRQAPGKERELVAAISWTGGSTYYADSVKGRFTISRDNAKNTVYLQMNSLKPEDTAVYYCAAELWYEGYDYWGQGTQVTVSS,high polyreactivity
20,QVHLVESGGGLVQSGGSLRLSCAASGRIFYYNAMGWYRQAPGKERELVAAITSSSGSSTYYADSVKGRFTISRDNAKNTVYLQMNSLKPEDTAVYYCAADATFIIRYLSRSDYWGQGTQVTVSS,low polyreactivity
21,QVQLVESGGGLVQAGGSLRLSCAASGYIFGVYAMGWYRQAPGKERELVAAISYGVGSTYYADSVKGRFTISRDNAKNTVYLQMNSLKPEDNAVYYCAAEDTQVRWSPVRPLEDYWGQGTQVTVSS,low polyreactivity
